In article PMC5903968 (FEBS letters, 2018):

What was measured:
Experiment in all cases: enzyme inhibition assay
[1] = target: MMP-10 catalytic domain (MMP-10CAT) (UniProt P09238 99-263)
[2] = target: MMP-14 catalytic domain (MMP-14CAT) (UniProt P50281 114-287)
[3] = target: T1, human MMP-9 catalytic domain (MMP-9CAT), residues 107-215, 391-443 (human, UniProt P14780 107-215; P14780 391-443)
T1 chain (looked up): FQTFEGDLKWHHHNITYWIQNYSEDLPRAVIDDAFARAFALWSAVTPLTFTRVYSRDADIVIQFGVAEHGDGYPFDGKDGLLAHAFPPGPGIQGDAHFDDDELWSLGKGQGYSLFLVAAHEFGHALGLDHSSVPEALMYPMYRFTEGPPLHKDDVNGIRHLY

[4] = target: T2, MMP-1 catalytic domain (MMP-1CAT) (UniProt P03956 100-269)
T2 sequence (looked up): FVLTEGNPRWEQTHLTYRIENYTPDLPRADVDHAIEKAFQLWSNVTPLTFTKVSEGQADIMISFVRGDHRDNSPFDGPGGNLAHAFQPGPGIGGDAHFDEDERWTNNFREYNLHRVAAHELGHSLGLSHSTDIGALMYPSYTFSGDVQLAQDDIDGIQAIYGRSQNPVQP

Sequence of MMP-10 catalytic domain (MMP-10CAT) (P09238 99-263): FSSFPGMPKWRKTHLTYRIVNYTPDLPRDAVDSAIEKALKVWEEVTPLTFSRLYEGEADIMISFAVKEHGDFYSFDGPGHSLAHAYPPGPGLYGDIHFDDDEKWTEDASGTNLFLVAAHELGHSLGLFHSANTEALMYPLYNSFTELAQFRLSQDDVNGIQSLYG

Ki [1]: 4.3 nM | Ki [2]: 2.52 nM | Ki [3]: 0.12 nM | Ki [4]: 0.25 nM
B1: N-terminal domain of TIMP-2 (N-TIMP2), wild type (domain or fragment, UniProt P16035 27-152, looked up)
chain: CSCSPVHPQQAFCNADVVIRAKAVSEKEVDSGNDIYGNPIKRIQYEIKQIKMFKGPEKDIEFIYTAPSSAVCGVSLDVGGKKEYLIAGKAEGDGKMHITLCDFIVPWDTLSTTQKKSLNHRYQMGC
